Reference: the nanobody polyreactivity screen of Harvey et al. (2022)

Experiment: yeast display, Sf9 membrane polyspecificity reagent, FACS + sequencing; frameworks hold sequencing errors
Procedure, shortened: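 Nanobodies from a synthetic yeast display library (Saccharomyces cerevisiae BJ5465), induced 36–48 hours with galactose, were stained 1 hour at 4 °C with 10% biotinylated, detergent-solubilized Sf9 membrane reagent, enriched on streptavidin microbeads, then FACS-sorted. Anti-HA (expression) and streptavidin (reagent binding) fluorescence set low and high (top ~1%) gates. Polyreactivity labels come from the gate of origin. Genes were colony-PCR amplified, MiSeq 2 × 250 sequenced and filtered by CDR length.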

Sequence	polyreactivity (PSR sort gate)
QVQLVESGGGLVQAGGSLRLSCAASGSTFSDYVMGWYRQAPGKERELVAAISWSGDRTYYADSVKGRFTISRDNAKNTFYLQMNSLKPEDTAVYYCAAEYAPSDPSYYYGYDYWGQGTQVTVSS	high polyreactivity
QVQLVESGGGLVQAGGSLRLSCAASGRTFRYYTMGWYRPAPGKEREFVAAISSTGGTYYADSVKGRFTISRDNAKNTVYLQMNSLKPEDTAVYYCAATFIQVVVNVQLYDYDYWGQGTQVTVSS	low polyreactivity
QVQLVESGGGLVQAGGSLRLSCAASGRTFKLNAMGWYRQAPGKERELVAGITRTGDSTYYADSVKGRFTISRDNAKNTVYLQMNSLKPEDTAVYYCAKDGPWKFIYDYWGQGTQVTVSS	low polyreactivity
QVQLVESGGGLVQAGGSLRLSCAASGSTFWLYVMGWYRQAPGKERELVAAISSSGGRTYYADSVKGRFTISRDNAKNTVYLQMNSLKPEDTAVYYCNKYGTALWRYYYWGQGTQVTVSS	high polyreactivity
QVQLVESGGGLVQAGGSLRLSCAASGFIFYYYAMGWYRQAPGKERELVASISSSGGRTYYADSVKGRFTISRDNAKNTVYLQMNSLKPEDTAVYYCAARGPYGYDLLYYWGQGTQVTVSS	high polyreactivity
QVQLVESGGGLVQAGGSLRLSCAASGNIFRPYTMGWYRQAPGKERELVARISSGGSTNYADSVKGRFTISRDNAKNTVYLQMNSLKPEDTAVYYCNTVFRGSSTRGYDYWGQGTQVTVSS	high polyreactivity
QVQLVESGGGLVQAGGSLRLSCAASGSIFYYNTMGWYRQAPGKERELVAAITSTGRTNYADSVKGRFTISRDNAKNTVYLQMNSLKPEDSAVYYCAKRRFGDGDYWGQGTQVTVSS	low polyreactivity
QVQLVESGGGLVQAGGSLRLSCAASGRIFEYYVMGWYRQAPGKERELVAAINRRGTSTYYADSVKGRFTISRDNAKNTVDLQMNSLKPEDTAVYYCAAVDRDYARTTTYDYCGQGTQVTVSS	high polyreactivity
QVQLVESGGGLVQAGGSLRLSCAASGFIFWYYAMGWSRQAPGKERELVAAISGSGGRTYYADSVKGRFTISRDNAKNTVYLQLNSLKPEDTAVYYCNARRAAYYHRARELDYWGEGTQVTVSS	high polyreactivity
QVQLVESGGGLVQAGGSLRLSCAASGSTFDKNAMGWYRQAPGKERELVAAITWRGGRTYYADSVKGRFPISRDNAKNTVYLQMNSLKPEDTAVYYCNKVSWEQMDYWGQGTQVTVSS	low polyreactivity
QVQLVESGGGLVQAGGSLRLSCAASGFIFWKYAKGWYRQAPGKERELVAAISTTGGSTYYADSVKGRFTNSRDNAKNTVYLQMNSLKPEDTAVYYCAAQVGRGYEVYPVYKYGYWGQGTQVTVSS	high polyreactivity
QVQIVESGGGLVQAGGSLRLSCAASGGTFYVNDMGWYRQAPGKERELVATITYSGTSTYYADSVKGRFTISRDNAKNTVYLHMNSLKPEDTAVYYCATDVLLYFEPVNLEYWGQGTQVTVSS	low polyreactivity
QVQLVESGGRLVQAGGSHRLSCAASGRTFVENAMGWYRQAPGQEREFVAAISSSGDSTYYADSVKGRFTISRDNEKYTVYLKMNSLNPEDTAVYYCAARVYSRGLFYWGEGTQVTVSS	low polyreactivity
QVQVVESGGGLVQAGGSLRLSCAASGSTFPVYAMGWYRQAPGKERELVAAISRSGASTYADSVKGRFTISRDNAKNTVYLQMNSLKPEDTAVYYCNKDPGNVSSYTGGGYWGQGTQVTVSS	low polyreactivity
QVQLVESGAGLVQAGGSLRLRCAASRRSFRNYAMGWYRPAPGKEREVVAAIRSGVRTYYADSVKGRFTISRDNAKNTVYLQMNSLKPEDTAVYYCAVATGLLYKSHGYWGQGTQVTVSS	low polyreactivity
QVQLVESGGGLVQAGGSLRLSCAASGSIFAQYTMGWYRQAPGKERELVAVISFRGGSTYYADSVKGRFTISRDNAKNTVYLQMNSLKPEDTAVYYCATVGTYPGYGEFDYWGQGTQVTVSS	low polyreactivity
QVQLVESGGGLVQAGGSLRLSCAASGRTSVIYAMGWYRKAPGKERELVASIRRGGSTSYADSVKGRFTISRDNAKNTVYLQMNSLKPEDTAVYYCAARKRSVYGTEYDYWGQGTQVTVSS	high polyreactivity
